These results are taken from patent US20050003401, “Pfu replication accessory factors and methods of use” (Stratagene, published 2005).

Data set [1] addresses T1, RFA (replication factor A) (Pyrococcus furiosus).
T1 chain: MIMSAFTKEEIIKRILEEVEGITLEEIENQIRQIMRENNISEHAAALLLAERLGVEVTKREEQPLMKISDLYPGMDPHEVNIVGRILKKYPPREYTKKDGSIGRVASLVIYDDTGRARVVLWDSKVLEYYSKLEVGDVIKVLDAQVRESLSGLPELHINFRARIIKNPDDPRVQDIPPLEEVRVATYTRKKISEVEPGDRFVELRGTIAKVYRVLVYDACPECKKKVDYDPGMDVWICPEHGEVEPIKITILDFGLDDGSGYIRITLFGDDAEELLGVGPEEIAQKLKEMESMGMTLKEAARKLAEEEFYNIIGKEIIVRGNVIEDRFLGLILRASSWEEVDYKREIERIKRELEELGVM
Nature of the data set: EMSA; partial shift; 95 C 10 min then 72 C 2 min. The conditions noted are these: tags: N-terminal CBP. How it is done: (§1) 50 ng of a 38-mer oligo was incubated with E. coli SSB (lane 1), water (lane 2), or P. furiosus RFA (lanes 3-7) in TE buffer (lanes 1-3), 1×cloned Pfu buffer (lane 4), 50 mM Tris pH 8.5, 25 mM KCl, 2 mM MgCl₂ (lane 5), 50 mM Tris pH 8.5, 25 mM KCl, 5 mM MgCl₂ (lane 6), or 50 mM Tris pH 8.5, 25 mM KCl, 2 mM ZnCl₂ (lane 7). Samples were incubated at 95° C. for 10 minutes, followed by 72° C. for 2 minutes prior to loading on a 4-20% acrylamide gradient gel in 1×TBE buffer. Bands were visualized by SYBR green staining and UV illumination.
(§2) To assess function, P. furiosus RFA was tested for single-stranded DNA binding activity in a gel shift assay (FIG. 18). […] The degree of migration of the oligo is related to the mass of the protein-DNA complex and the formation of protein multimers. E. coli SSB is known to form tetramers, but it is presently unknown whether P. furiosus RFA produces multimers as well.

For data set [2], the target named is SSB (single-stranded DNA binding protein) (Escherichia coli, UniProt P0AGE0 P0AGE0:2-178). Put plainly: EMSA; TE buffer; 95 C 10 min then 72 C 2 min. The note with it: tags: Stratagene Perfect Match; chain copies: 4. How it is done:
as §1, §2

Chain of SSB (single-stranded DNA binding protein) (P0AGE0 2-178, one chain of several): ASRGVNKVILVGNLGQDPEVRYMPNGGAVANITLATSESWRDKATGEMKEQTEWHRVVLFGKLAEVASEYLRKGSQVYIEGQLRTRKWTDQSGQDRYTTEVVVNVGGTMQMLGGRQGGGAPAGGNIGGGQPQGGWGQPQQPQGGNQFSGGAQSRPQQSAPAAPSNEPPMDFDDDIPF

B1: 38-mer oligo (ssDNA)
DNA: GGTTTTCCCAGTCACGACGTTGTAAAACGACGGCCAGT
Turning to B1, the binding result in data set [1] and in data set [2] was “binds” throughout.
